Experimental data: patent US5512545

Target: PDGF receptors (alpha and beta sub-units)

PDGF-B (naturally occurring, full length; product of Comparative Example A) (ligand)
Mitogenesis ng/ml ([3H]thymidine uptake by Swiss 3T3 cells; activity read from the dose response curve of the PDGF-BB standard c-sis): 308 ng/mL
